Experimental data from US9395368B2, “Methods, agents and peptides for inducing an immune response to matrix metalloproteinase-2 expressing tumors” (New York University, priority 2010, dated 2016).

Key:
[1] = test system: IL-12p70 production by DCs; test: IL-12p70 production by poly(I:C)-matured DCs (CBA); assay type: cell-based, human
Method: (§1) Immature DCs were incubated with MMP-2 (0.5 μg/mL or 5 μg/mL) and poly(I:C)-matured 1 h later. IL-12 levels were measured 16 h later. (A) Results are represented as a percentage of IL-12p70 levels, measured by CBA, produced when DCs were incubated with poly(I:C) only (n=11). (B) For intracellular staining of IL-12p35 and IL-12p40 chains, Brefeldin A was added 4 h after poly(I:C) activation and cells were stained after an additional 12 h incubation. Numbers in the upper right quadrants are the percentages of each population for a representative donor (n=3). (C,D) Immature DCs were incubated with MMP-2 for 1 h (5 μg/mL) before poly(I:C) maturation. Intracellular staining of phosphorylated (Y701) STAT1 (P-STAT1) was performed 3 h later. A representative donor (C) and results for all 3 donors (D) are shown. […] (E) Immature DCs were incubated with MMP-2 and poly(I:C)-matured 1 h later. IFNβ levels were measured by ELISA 16 h later. Results are represented as a percentage of IFNβ levels produced when DCs were incubated with poly(I:C) only (n=9). (F,G) 10^6DCs/lane were treated with 0.1 μg MMP-2 or controls. Poly(I:C) was added 1 h later. IFNAR1 protein expression was detected the next day by Western blot analysis using a rabbit monoclonal antibody. A representative donor (F) and results for all 7 donors (G) are shown. (H) The rhIFNAR1 (5 μg; ≈110 kD) was incubated overnight with 0.3 μg MMP-2 before performing Western blot analysis for IFNAR1. The second band (around 90 kD) and the third band (25 kD) very likely correspond to either a degraded form of the protein still recognized by the antibody or a contaminant present in the commercial protein preparation and non-specifically recognized by the antibody. MMP-2 enzymatic activity was controlled (FIG. 13C-D). […]
Dendritic cell preparation and activation. […] Immature DCs were harvested on day 5 and matured using poly(I:C) at 5 μg/mL/10^6 DCs (Amersham) Secretion of IL-12p70, TNFα, IL-1β, IL-6, IL-8 and IL-10 was assessed on both immature and mature DCs using the Human Inflammatory Cytokine Cytometric Bead Array (BD Pharmingen).

[2] = test system: IL-12p35 and IL-12p40 in DCs; test: Intracellular staining of IL-12p35 and IL-12p40 chains in DCs; assay type: cell-based, human
Method: as §1
(§2) Intracellular staining T-bet and GATA-3 expression was measured on resting T cells. […] Cytokine production by T cells was also assessed by intracellular staining T cells were stimulated with 2 μM overlapping peptides. […]

rhIFNAR1 = test: Overnight incubation of rhIFNAR1 with MMP-2 (Western blot); assay type: biochemical, human; conditions: incubated overnight
Method: as §1, with “antibody.” for “antibody. A representative donor (F) and results for all 7 donors (G) are shown. (H) The rhIFNAR1 (5 μg; ≈110 kD) was incubated overnight with 0.3 μg MMP-2 before performing Western blot analysis for IFNAR1. The second band (around 90 kD) and the third band (25 kD) very likely correspond to either a degraded form of the protein still recognized by the antibody or a contaminant present in the commercial protein preparation and non-specifically recognized by the antibody. MMP-2 enzymatic activity was controlled (FIG. 13C-D).”
(§3) Western blots IFNAR1 and β-actin were detected by Western blot analysis using rabbit and mouse mAbs, respectively. […]

IFNAR1 = IFNAR1 protein expression in DCs (Western blot); assay type: cell-based, human; conditions: n=7 donors
Method: as §1, with “antibody.” for “antibody. A representative donor (F) and results for all 7 donors (G) are shown. (H) The rhIFNAR1 (5 μg; ≈110 kD) was incubated overnight with 0.3 μg MMP-2 before performing Western blot analysis for IFNAR1. The second band (around 90 kD) and the third band (25 kD) very likely correspond to either a degraded form of the protein still recognized by the antibody or a contaminant present in the commercial protein preparation and non-specifically recognized by the antibody. MMP-2 enzymatic activity was controlled (FIG. 13C-D).”
as §3

Recombinant IL-12p70 = test: Incubation of recombinant IL-12p70 with MMP-2, IL-12p70 content by CBA; assay type: biochemical, human; conditions: rhIL-12 incubated for 24 h in the presence or absence of MMP-2
[3] = test system: phosphorylated (Y701) STAT1; test: Intracellular staining of phosphorylated (Y701) STAT1 in DCs; assay type: cell-based, human; conditions: DCs preincubated 1 h (5 μg/mL) prior to poly(I:C), 3 h
Method: as §1, with “(F,G) 10^6DCs/lane were treated with 0.1 μg MMP-2 or controls. Poly(I:C) was added 1 h later.” left out, “antibody.” for “antibody. A representative donor (F) and results for all 7 donors (G) are shown. (H) The rhIFNAR1 (5 μg; ≈110 kD) was incubated overnight with 0.3 μg MMP-2 before performing Western blot analysis for IFNAR1. The second band (around 90 kD) and the third band (25 kD) very likely correspond to either a degraded form of the protein still recognized by the antibody or a contaminant present in the commercial protein preparation and non-specifically recognized by the antibody. MMP-2 enzymatic activity was controlled (FIG. 13C-D).”
as §2

IFNβ production by DCs = test: IFNβ levels produced by poly(I:C)-matured DCs (ELISA); assay type: cell-based, human; conditions: poly(I:C)-matured DCs pre-exposed, 16 h
Method: Immature DCs were incubated with MMP-2 (0.5 μg/mL or 5 μg/mL) and poly(I:C)-matured 1 h later. IL-12 levels were measured 16 h later. (A) Results are represented as a percentage of IL-12p70 levels, measured by CBA, produced when DCs were incubated with poly(I:C) only (n=11). (B) For intracellular staining of IL-12p35 and IL-12p40 chains, Brefeldin A was added 4 h after poly(I:C) activation and cells were stained after an additional 12 h incubation. Numbers in the upper right quadrants are the percentages of each population for a representative donor (n=3). (C,D) Immature DCs were incubated with MMP-2 for 1 h (5 μg/mL) before poly(I:C) maturation. Intracellular staining of phosphorylated (Y701) STAT1 (P-STAT1) was performed 3 h later. […] IFNβ levels were measured by ELISA 16 h later. […] IFNAR1 protein expression was detected the next day by Western blot analysis using a rabbit monoclonal antibody. […]
Enzyme-linked immunosorbent assay Activation of T cell clones (10,000 cells/100 μL/well), polyclonal T cell populations (100,000 cells/100 μL/well), DCs (50,000 cells/100 μL/well) and basophils (10,000 cells/100 μL/well) was determined by ELISA. IFNγ (BioSource), TNFα (BioSource), IL-4 (BioSource), TSLP (Quantikine; R&D Systems), IFNβ (VeriKine; PBL interferon source) and MCP-3 (DuoSet; R&D Systems) contents in supernatants were measured according to the manufacturer's instructions.

B1: active MMP-2: Purified human MMP-2 (mixture of the proenzyme (50%) and the active form (50%)) purchased from Biomol (protein, listed as Homo sapiens)
chain: MEALMARGALTGPLRALCLLGCLLSHAAAAPSPIIKFPGDVAPKTDKELAVQYLNTFYGCPKESCNLFVLKDTLKKMQKFFGLPQTGDLDQNTIETMRKPRCGNPDVANYNFFPRKPKWDKNQITYRIIGYTPDLDPETVDDAFARAFQVWSDVTPLRFSRIHDGEADIMINFGRWEHGDGYPFDGKDGLLAHAFAPGTGVGGDSHFDDDELWTLGEGQVVRVKYGNADGEYCKFPFLFNGKEYNSCTDTGRSDGFLWCSTTYNFEKDGKYGFCPHEALFTMGGNAEGQPCKFPFRFQGTSYDSCTTEGRTDGYRWCGTTEDYDRDKKYGFCPETAMSTVGGNSEGAPCVFPFTFLGNKYESCTSAGRSDGKMWCATTANYDDDRKWGFCPDQGYSLFLVAAHEFGHAMGLEHSQDPGALMAPIYTYTKNFRLSQDDIKGIQELYGASPDIDLGTGPTPTLGPVTPEICKQDIVFDGIAQIRGEIFFFKDRFIWRTVTPRDKPMGPLLVATFWPELPEKIDAVYEAPQEEKAVFFAGNEYWIYSASTLERGYPKPLTSLGLPPDVQRVDAAFNWSKNKKTYIFAGDKFWRYNEVKKKMDPGFPKLIADAWNAIPDNLDAVVDLQGGGHSYFFKGAYYLKLENQSLKSVKFGSIKSDWLGC
IL-12p70, mean of differences ([1]; 5 μg/mL MMP-2, n=11 donors): 41.7 | IL-12p70 mean inhibition ([1]; 5 μg/mL MMP-2, poly(I:C) stimulation, n=11 donors): 47.8% | IL-12p40 production [2]: not affected overall | IL-12p35 production, mean inhibition ([2]; pre-exposure of DCs): 65% | DCs expressing the IL-12p35 subunit ([2]; pre-incubated before poly(I:C) activation, poly(I:C) only 4.33%±0.94): 1.5%±0.22 | degradation of rhIFNAR1 (≈110 kD) (rhIFNAR1): degraded | expression of IFNAR1 chain on DCs (IFNAR1): drastically lost expression | IL-12p70 levels after incubation of rhIL-12 with MMP-2 (Recombinant IL-12p70): remained the same | STAT1 phosphorylation [3]: decreased | IFNβ levels (IFNβ production by DCs): decreased levels
